Measurements: patent US20170260531

Experiments:
PDGF-BB (Homo sapiens) = PDGF-BB (Homo sapiens) (UniProt P01127); test: filter; settings: Bn-dU
[1] = test system: T1, VEGF-121 (Homo sapiens), P15692-9; test: filter; settings: Nap-dU at all P positions; 2'-OMe at C6,G9,C12,G15,A17,G18,Nap22,G28,G29; 0.035 nM in Table 14
T1 sequence: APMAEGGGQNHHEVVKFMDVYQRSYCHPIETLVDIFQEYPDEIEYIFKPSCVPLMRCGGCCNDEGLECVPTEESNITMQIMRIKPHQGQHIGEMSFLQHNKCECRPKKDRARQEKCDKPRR

Sequence of UniProt P01127 (P01127 82-190): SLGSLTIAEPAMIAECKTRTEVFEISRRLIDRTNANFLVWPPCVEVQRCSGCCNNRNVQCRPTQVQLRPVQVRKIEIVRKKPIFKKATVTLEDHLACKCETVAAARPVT

## TTACACTACGTTACACGCGTTTATAGCG [4149-8_68]
PDGF-BB (Homo sapiens); C3 at position 5
  Kd: < 10 nM

## TTACGACTACGTTACACGCGTTTATAGCG [4149-8_48]
PDGF-BB (Homo sapiens); 2'-OMe at position 7
  Kd: < 10 nM

## TTACGACTACGTTACACGCGTTTATAGCG [4149-8_45]
PDGF-BB (Homo sapiens); 2'-OMe at position 4
  Kd: < 10 nM

## TTACGACTACGTTACACGCGTTTATAGCG [4149-8_58]
PDGF-BB (Homo sapiens); 2'-OMe at position 20
  Kd: < 10 nM

## TTACGACTACGTTACAGCGTTTATAGCG [4149-8_80]
PDGF-BB (Homo sapiens); C3 at position 17
  Kd: < 10 nM

## TTACGACTACGTTACACGCGTTTATAGG [4149-8_91]
PDGF-BB (Homo sapiens); C3 at position 28
  Kd: < 10 nM

## TTACGACTACGTTACACGCGTTTATAGCG [4149-8_46]
PDGF-BB (Homo sapiens); 2'-OMe at position 5
  Kd: < 10 nM

## TTACGACTACGTTACACGCGTTTATAGCG [4149-8_50]
PDGF-BB (Homo sapiens); 2'-OMe at position 10
  Kd: < 10 nM

## CCGTTCAAGTGCTTGTAGGATTTAAATGG [4867-31_192]
[1]
  Kd: 0.023 nM

## TTACGACTACGTTACACGCGTTTATAGCG [4149-8_57]
PDGF-BB (Homo sapiens); 2'-OMe at position 19
  Kd: < 10 nM

## TTACGACTACGTTACACGCGTTTATAGCG [4149-8_44]
PDGF-BB (Homo sapiens); 2'-OMe at position 3
  Kd: < 10 nM

## TTACGACTACGTTACCGCGTTTATAGCG [4149-8_79]
PDGF-BB (Homo sapiens); C3 at position 16
  Kd: < 10 nM

## TTACGACTACGTTACACGCGTTTTAGCG [4149-8_87]
PDGF-BB (Homo sapiens); C3 at position 24
  Kd: < 10 nM

## TTACGTTACCGTTTATAG [4149-8_405]
PDGF-BB (Homo sapiens); Heg, C3
  Kd: > 10 nM

## TTACGACTACGTTACACGCGTTTATAGCG [4149-8_47]
PDGF-BB (Homo sapiens); 2'-OMe at position 6
  Kd: < 10 nM

## TACGACTACGTTACACGCGTTTATAGCG [4149-8_64]
PDGF-BB (Homo sapiens); C3 at position 1
  Kd: < 10 nM

## TTAGACTACGTTACACGCGTTTATAGCG [4149-8_67]
PDGF-BB (Homo sapiens); C3 at position 4
  Kd: < 10 nM

## TTACGACTACGTTACACGCGTTTATAGC [4149-8_92]
PDGF-BB (Homo sapiens); C3 at position 29
  Kd: < 10 nM

## TTACGACTACGTTAACGCGTTTATAGCG [4149-8_78]
PDGF-BB (Homo sapiens); C3 at position 15
  Kd: < 10 nM

## TTACGACTACGTTACACGCGTTTATAGCG [4149-8_61]
PDGF-BB (Homo sapiens); 2'-OMe at position 27
  Kd: < 10 nM

## TTACGACTACGTTACACGCGTTTATAGCG [4149-8_62]
PDGF-BB (Homo sapiens); 2'-OMe at position 28
  Kd: < 10 nM

## TTACGACTACGTTACACGCGTTTATAGCG [4149-8_51]
PDGF-BB (Homo sapiens); 2'-OMe at position 11
  Kd: < 10 nM

## TTACGCTACGTTACACGCGTTTATAGCG [4149-8_69]
PDGF-BB (Homo sapiens); C3 at position 6
  Kd: < 10 nM

## TTACGACTACGTTACACGCGTTTATAGCG [4149-8_56]
PDGF-BB (Homo sapiens); 2'-OMe at position 18
  Kd: < 10 nM

## TTACGACTACGTTACACGCGTTTATAGCG [4149-8_52]
PDGF-BB (Homo sapiens); 2'-OMe at position 14
  Kd: < 10 nM

## TTACGATACGTTACACGCGTTTATAGCG [4149-8_70]
PDGF-BB (Homo sapiens); C3 at position 7
  Kd: < 10 nM

## TTACGACTCGTTACACGCGTTTATAGCG [4149-8_72]
PDGF-BB (Homo sapiens); C3 at position 9
  Kd: < 10 nM

## TTACGACTACGTTACACGCGTTTATAGCG [4149-8_59]
PDGF-BB (Homo sapiens); 2'-OMe at position 24
  Kd: < 10 nM

## TTACGTTACCGCGTTTATAGCG [4149-8_426]
PDGF-BB (Homo sapiens); MBn-dU, Heg, C3, 2'-OMe
  Kd: > 10 nM

## TTACGACTACGTTACACGCGTTTATAGCG [4149-8_63]
PDGF-BB (Homo sapiens); 2'-OMe at position 29
  Kd: < 10 nM

## TTACGACACGTTACACGCGTTTATAGCG [4149-8_71]
PDGF-BB (Homo sapiens); C3 at position 8
  Kd: < 10 nM

## TTACGACTAGTTACACGCGTTTATAGCG [4149-8_73]
PDGF-BB (Homo sapiens); C3 at position 10
  Kd: < 10 nM

## TTACGACTACGTTACACGCGTTTATAGCG [4149-8_54]
PDGF-BB (Homo sapiens); 2'-OMe at position 16
  Kd: < 10 nM

## TTACGACTACGTTACACGCGTTTATAGCG [4149-8_60]
PDGF-BB (Homo sapiens); 2'-OMe at position 26
  Kd: < 10 nM

## TTACGACTACGTTACACGCGTTTATAGCG [4149-8_53]
PDGF-BB (Homo sapiens); 2'-OMe at position 15
  Kd: < 10 nM

## TTACGACTACGTTACACGCGTTTATAGCG [4149-8_55]
PDGF-BB (Homo sapiens); 2'-OMe at position 17
  Kd: < 10 nM

## TTACGACTACGTTACACGCGTTTATAGCG [4149-8_49]
PDGF-BB (Homo sapiens); 2'-OMe at position 9
  Kd: < 10 nM
